Assay results reported in the NTF2 design screens of Basanta et al. (2020).

assay: protease stability score; higher = more stable; yeast display proteolysis, trypsin and chymotrypsin;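 also: relative to predicted unfolded state with 0 unfolded-like and 1 meaning tenfold more protease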

Sequence	protease stability score
DDEKRFTHEAIKTSEEVMKTGDERLMRELMDPNVRSEIDGRDVHGMDIITEWLSHIRIEDIKLRRITVIDGVITIRGEVYFEQGDKIVTFDVTIIYEKIDGRWLLRSLHVK	1.53
DERDEMSRHLVRLWIRLYRTGDWKELYDNLDPNARLIIGDKEYHGREEVVEIFLELAKRFKNVKVEFKEIHFQGDKMTLREEVRQGDWRVEVIIKVEFIDGKLHHVQIIFG	2.75
DSDEEATKDFLEILIKLEMTGNEEEMRKMLDPNVRLIIDGVNLHGREALNVYLERFKNIQVEEIRIRHIEFQGEKVKIDYEWTVRINGRHHHQRTTIILIKYDGRWIIHMIHWH	2.55
DEDEEDARIAWEILVRVWKTGDEEELMKMADPNTRLEINGREFHGREHYLHMSRELRVERVDVRRLEVFDGKVHLEGESHMEVNGKRRTHKVVHIMRKIDGRWHIEYFIVH	1.31
EEEERESEEKFRLLLELLRTGDEEILKHMADPNTKIVINGVDLHGWKEWHRIMRRFKNVTIRFKELWVYGDKAQARVEFDIDGKSFEMELHFVVINGRLKSIHVHSH	2.11
DEMERNEELALKIIEETQRTGDWHMIYEQLDPHVRIIIGDKTLVGREHVEEWLHRIDHLHVDDMKLEHSRPINGRILLDVHMHVHIRYGDKQVKHTTHVHIIMFKFNGRWYLKIVHIH	2.65
TEDHEIVEDALRLWWTSVHTGDETLMSRLADPDVRLIVGDKHFHGREKFTRTMKELDDEMRFHHLEIKEFELFDGRIKINVRLRGTIGDKHTIFEVNVINLKVNGKWLLKSLEVR	1.1
KELEEHELRLAKDMSKVIETGDEERLRRLADPHVKVHINGKTRHGREWMSHLLNLMLTELRVRHLHIKDVFEVNGVAHSETELDGEVNGREIELHTEIILVVVNGKIQRLEIRIE	1.06
DEREHDLRRAVHIHRELMMTGDESNFLSYADPNTRLEVDGQEVVGREEVFKWITNVLSRHGVELKDIRVKTMDHQGNKLILHVEIRTRIGEKDTSVDFTLVVEKVNGRWVLHSLEIH	0.16
DEETKLNHLAIRLWLQSVMTGNEELQTKLIDPHVRNHIDGREYHGREVFRENLRDLWEKYGVKHVELTHEHSQGEKVHLRFKVDVNGRELDHKIIAHKIDGRWLDHSIHFH	0.611
DEKEEEYKEMIRIMVEYLETGNEEDMNRLLDPHTKTEYHQGDKSDEFHGREEFMRLWQELGIDHFRVRDVDIVDGRVRIESELIVGDKRFNSYFFLIVVNGRATSASIHVE	2.27
SEEDEDKELVRHLVEKLIKTGDETLMHEMFDPNARLRVNGRDFHGRESIVKAMLEFLRWLGVDHIHFEHIIVRIVDGRIEINVTVRVEQGDKRTELRIHTRATKIDGKWILTSLTLDVR	1.13
SEIEEESEEHLNLYMHAMHTGDWHTLERLADPNVRMDVNGQEHHGREEFVKVLVHMIEHLGIDHVRVKHLDLQGDKLHADTTEEVNGRRIHTILDVTKINGRWFITSLEIH	0.495
DEEQTQMEETVNVVLSAMRTGDEETSKKLADPNVKIRINGREFHGRDFYAHVILMFGIDHIEMRIERYEFQGEKLILRGRLRLEFNGKEETSDVIEIWWKVDGRWHLDNYYEN	1.37
SEDEKTTKDVFREIKEILLTGDWRALERLLDPHVRFDINGQEIHGRESILEYWLEQVRRLGIDHIEIRLHHIDVQGDKIHLDVRIIYRYGDKEYREETKFVIIKIDGKWHLKEYHVD	2.11
DEFEKTAEELLRRLVKNMKTGNEDMISHLLDPNARLEVGEFEYHGREQLVRFLVHLRVDHVDLHHVEVQGDKLILDTRTDGTFNGRRRNIRETIIIRKVNGKWIIESYHVE	1.46
DEEERFSEEALRRIWHALETGDERIQEDLADPNVRIDVGEKSYHGREKWSEMIRHMRLHDIKIHHVIVINGRMRFHGRMDGNIDGKRIDTEVEIHFEKVDGKWLVRKIRIH	2.25
DEHHEIVRSMSELLTHLHLTGDEEKLSRMADPRVRLDVNGQWFHGREQWEKAFEDFEREMGAKHVKVDHVHVQGNKIILHFHVNVDGVHITVEFDIIIVDGRLKREHIRLK	0.621

Sequence	protease stability score
DEEEHSAEHAIRILIELLYTGDEDQLERFMDPNTRLHIYFEGHEIHHHGMELISEIFSEIIHRIKNITYRVEDFHLVNGRVHLHGRWNINGKRTKEHWVVLKVDGVWILERVHIHIQ	1.27
DEEIEMLTKLAELFIRLWLTGNEDILESMADPRVRLEINGREHHGRDIVRKIFEHDRHHMRLESIQLHDRRVYNGRADLHGTQYGEINGKRETYTVRLILVIINGRIETVKVIVE	1.14
DEENHHTREIFKMTLKEVFTGNEEMTTRLLDPHVRVQVGDKTIHGWKHFTHIFFRLRHEFGVDHVQLRHLEIIGNKAVIHFSVYVGEWTYEFTIHALKVNGRWVLESLEVHQI	1.5
DDESEKAEHIYELLTRLMLTGDEQIIHKLMDPNVRLDVDGQEYHGREEVVSAWRRWLKEMGVDHLELKSVRLIFFNGQLHIHINGEVRFNGRKHRVHIRLVLRKIDGVWHLEELEVEYK	1.92
DEVEELAKRLLEELIHALETGDFDHNRHLLDPNVRIVIGEKDHVGWREVTKALRHMGIDHIHVRIHRIEVQGDKVHTESSVEMDINGKKLEFDTWLILRKVNGRWLFHSIEIR	1.44
SEEEELTEMVARVIVHSLLTGDEENLDHMLDPNVKIDNDIDGKEERLHGREDRRRVNEEWGWSNIHWIVRRIRTQGNKATVDGEIRFDGVTEHVRLIVILFNGKVHLVRLKHL	0.77
DEEDERSKEAMEHFLENEITGDWKRLHELFDPNARMHINGREYHGREEVTNKFWEHNYRMGVKHVEVRDLEVINGRVHLHVEQDVGEFHIELEVVIKKVNGRWLIEETEIHVR	0.987
DDDQKEMERFVREFVHSFMTGDEENIRRLADPNARTYVNGKLRHGMDNFLHLWRQIRIDIQHVKVDDMHLVNGRIYIRVTVHGIFTFDGVHVRDEKDQHWELHVVDGRAKYISIHVH	1.62
DQEEQDIRRAIRLYLELLLTGDWKTLEKLIDPNVRLNFNGQEYHGMRDVLRLLKEILEELGIKHVHLHDERIQGDKVKVDTRVEINGKHSEVILVAEKINGKWVVHHLEHNHK	1.24
DEDKEILKRAFEIYIQTVLTGDEDLFHEMADPHTRLETENETFIGREEVRRWMSEWRVDHIILKDFTAVNGRLVLRGEMDGTINGKRTHVTVTIIIHKVDGRWLLKSMSVE	1.36
SEQEESRRWWLEELLTFLVTGDENRLKELLDPDVRVVVNGKHLHGMEAFEEYLRQIDHVDSHKVTDVKVQGNKIIVHTRAKINVDGRHVETELIFIVHKIDGKWKLHSFESR	1.69
SEDQEAMDRAIKIFEEIVDTGNERLSRENMDPRTRIVFEGVHLHGREEAVRHHRELWKRVDVMEMRTEDYRFFDGRVHQTTRLHLNYNGREETYETRFLVEKVNGKWFIKSIIIV	0.272
EEELELAKKIADTFNHDMETGDEKSRWDLFDPNVRIDWNGKDLHGWEQEEEELERLGITKVELEIKRKEVQGDKVILDGTVRFNGRSTRVHVHIRVVNGRLKSIKIIIR	0.345
DTEEKELQKSLKELVTAVQTGDFKLLKELFDPHVRIDIGDKNVIGREEFSRFQKEEMEKWGVSRFTFDMEIHRYEIQGNKAYVDALNREEINGQEIHFNVDLFIHKINGKWLITEIRNK	0.494
SELEEAVRRWLELFFKLFWTGNEEILTDLFDPNVRLEVGDKVFIGREEVSRHLREFRERVKNLRMHVHDVKLINGVVHMDIEIDINGVRTKAHTDWIVIDGRHHSQIIKIN	0.525
DEERELLKRFIELWFHAIKTGDEDQLIRLLDPHVRIDINGVDIHGMEKYIHEHLRLERERGFEIRDFKIKHIEIQGEKAHVDTRLSGMVDGRHVDVRNRFIIYKFNGRWIFHSFHVD	1.24
TEEEKMAEKLWEILVKNAQTGDEDKVLKLIDPHTRFTFNGQTHHGRDTFHHLWKILGVDHVEPHSIEVQGDKAHIDSRLYFNGQVRTYTIIVEKINGRWIVTTIDLH	1
REQEEFSENAIKLWEHLTKTGDEEKMTKLMDPHARLDVNGQQLVGRELIEKIIREILKRIDHLDHIEFEHIDNQGEKVIIHSRVIFIFNGRKIDTEVHVIMIKINGQWRIESMTEK	1.18
